Consider 15 molecules from US20250352661A1 (MYTHIC THERAPEUTICS, published 2025).

Sequences and labels used below:
B1: MYT8437 (antibody, V domains shown)
VH: EVQLVESGGGLVQPGGSLRLSCTASGLDFRRTNYICWVRQAPGKGLEWVGCIYIADVVHYYASWAKGRFTFSRDTSKNTVYLQMNSLRAEDTAVYYCARGADGGFVYGMDLWGQGTLVTVSS
VL: EIVMTQSPSTLSASVGDRVIITCQASQSIGNYLSWYQQKPGKAPKRLIYSASTLPSGVPSRFSGSGSGAEFTLTISSLQPDDFATYYCQNNHHLAHYGHPFGQGTKLTVL
notes: hu15G7 VL Y92H, W93H, G96H; human Fc
B2: MYT9465 (antibody, V domains shown)
VH: EVQLVESGGGLVQPGGSLRLSCTASGDSFSSSHWICWVRQAPGKGLEWVGCIYAGSIGSTYYASWAKGRFTISRDTSKNTVYLQMNSLRAEDTAVYYCARAPNDIYNYYFNLWGQGTLVTVSS
VL: EIVMTQSPSTLSASVGDRVIITCQASENIYNYLAWYQQKPGKAPKLLIYYASTLASGVPSRFSGSGSGAEFTLTISSLQPDDFATYYCQSGYVSKSSTFGQGTKLTVL
notes: also called hu29F1 VH F27D
B3: MYT9480 (antibody, V domains shown)
VH: B2 VH with D27F, S56D
VL: B2 VL
notes: Humanized 29F1 VH aspartate variant; also called hu29F1 VH S56D
B4: MYT9488 (antibody, V domains shown)
VH: B2 VH with D27F, S64D
VL: B2 VL
notes: also called hu29F1 VH S64D
B5: MYT9476 (antibody, V domains shown)
VH: B2 VH with D27F, I52D
VL: B2 VL
notes: also called hu29F1 VH I52D
B6: MYT9470 (antibody, V domains shown)
VH: B2 VH with D27F, S32D
VL: B2 VL
notes: also called hu29F1 VH S32D
B7: MYT9486 (antibody, V domains shown)
VH: B2 VH with D27F, Y62D
VL: B2 VL
notes: also called hu29F1 VH Y62D
B8: MYT9487 (antibody, V domains shown)
VH: B2 VH with D27F, A63D
VL: B2 VL
notes: also called hu29F1 VH A63D
B9: MYT9468 (antibody, V domains shown)
VH: B2 VH with D27F, S30D
VL: B2 VL
notes: also called hu29F1 VH S30D
B10: MYT9489 (antibody, V domains shown)
VH: B2 VH with D27F, W65D
VL: B2 VL
notes: also called hu29F1 VH W65D
B11: MYT9466 (antibody, V domains shown)
VH: B2 VH with D27F, S28D
VL: B2 VL
notes: also called hu29F1 VH S28D
B12: MYT9481 (antibody, V domains shown)
VH: B2 VH with D27F, I57D
VL: B2 VL
notes: also called hu29F1 VH I57D
B13: MYT9484 (antibody, V domains shown)
VH: B2 VH with D27F, T60D
VL: B2 VL
notes: also called hu29F1 VH T60D
B14: MYT9469 (antibody, V domains shown)
VH: B2 VH with D27F, S31D
VL: B2 VL
notes: Humanized 29F1 VH aspartate variant; also called hu29F1 VH S31D
B15: MYT9485 (antibody, V domains shown)
VH: B2 VH with D27F, Y61D
VL: B2 VL
notes: also called hu29F1 VH Y61D

Where a chain is given by its changes, count along the chain named. Names may count otherwise.

The target in the first assay is T1, Human LRRC15 Protein, His Tag (Acro Biosystems) (human, UniProt Q8TF66 22-538, limits assumed).
T1 construct: Bought protein with His tag
T1 sequence (looked up): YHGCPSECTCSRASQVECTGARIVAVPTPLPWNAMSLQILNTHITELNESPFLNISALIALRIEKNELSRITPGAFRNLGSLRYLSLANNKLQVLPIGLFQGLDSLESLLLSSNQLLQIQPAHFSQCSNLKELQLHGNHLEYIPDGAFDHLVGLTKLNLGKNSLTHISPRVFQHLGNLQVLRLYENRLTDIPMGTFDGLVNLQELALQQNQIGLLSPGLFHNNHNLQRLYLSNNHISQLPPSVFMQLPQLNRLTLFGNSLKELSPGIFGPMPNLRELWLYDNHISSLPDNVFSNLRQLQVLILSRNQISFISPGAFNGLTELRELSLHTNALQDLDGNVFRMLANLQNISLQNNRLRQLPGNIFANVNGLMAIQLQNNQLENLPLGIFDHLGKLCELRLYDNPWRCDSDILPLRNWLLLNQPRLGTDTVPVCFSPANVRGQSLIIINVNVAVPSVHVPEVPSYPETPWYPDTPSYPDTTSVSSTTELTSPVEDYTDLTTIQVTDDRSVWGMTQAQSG
Briefly: BLI; dissociation pH 7.4 black, pH 5.4 grey [D00010 FIG. 1H]. From the text:
For each individual plot, antigen binding proteins were captured on anti-human Fc biosensors and associated with LRRC15 at pH 7.4. Dissociation was at pH 7.4 (black) or pH 5.4 (grey). Major X-axis ticks=100 seconds, with left dashed vertical line=0 seconds. Major Y-axis ticks=0.5 nm and octet plots are shown MYT5712 and MYT6080-MYT6121.
Multiple LRRC15-binding monoclonal antibodies have been described in the literature and can be used as a template for engineering pH-dependent binding. We selected discovery RabMAb clone 15G7 (rabbit VH SEQ ID NO: 378, rabbit VL SEQ ID NO: 451; humanized VH SEQ ID NO: 382, humanized VL SEQ ID NO: 455) as a LRRC15-binding monoclonal antibody for pH-engineering via histidine scanning. […] To generate pH-dependent sequence variants, individual amino acid residues within the heavy chain CDRs were systematically substituted with a histidine (or alanine if H was already present in a given position; e.g., MYT6099), one at a time (rabbit, MYT6080-6121). Desirable mutations were transferred to a humanized framework (humanized, MYT 8387-8411). After allowing for four days of protein expression, cell culture supernatants were collected, quantified by SDS-PAGE analysis, and the pH dependence of the variant was evaluated using biolayer interferometry (BLI) on an Octet RED 96e instrument. Briefly, cell culture supernatants were diluted based on qualitative expression level of the variant determined by visual examination of SDS-PAGE gels, 5 μL of cell culture supernatant was diluted into 195 μL of 1×PBST, pH 7.4 for high expressors, 25 μL of cell culture supernatant was diluted into 175 μL of 1×PBST, pH 7.4 for medium expressors and 100 μL of cell culture supernatant was diluted into 100 μL of 1×PBST, pH 7.4 for low expressors for loading onto the sensor tips.
For orientation: BLI is a label-free optical method that tracks binding on a fibre tip over time.
As to B1, the binding result is given as “no binding (tested: 50 nM LRRC15)”.

A further assay has as its target T2, Human LRRC15 Protein, His Tag (Acro Biosystems) (human, UniProt Q8TF66 22-538, limits assumed).
T2 construct: not shown: His tag
T2 sequence (looked up): T1 sequence (looked up)
Put plainly: BLI; dissociation pH 7.4 black, pH 5.4 grey [1/2); D00019 FIG. 4B (1/2]. On the procedure: Desirable mutations were transferred to a humanized framework (humanized, MYT 8387-8411). After allowing for four days of protein expression, cell culture supernatants were collected, quantified by SDS-PAGE analysis, and the pH dependence of the variant was evaluated using biolayer interferometry (BLI) on an Octet RED 96e instrument. Briefly, cell culture supernatants were diluted based on qualitative expression level of the variant determined by visual examination of SDS-PAGE gels, 5 μL of cell culture supernatant was diluted into 195 μL of 1×PBST, pH 7.4 for high expressors, 25 μL of cell culture supernatant was diluted into 175 μL of 1×PBST, pH 7.4 for medium expressors and 100 μL of cell culture supernatant was diluted into 100 μL of 1×PBST, pH 7.4 for low expressors for loading onto the sensor tips. The resulting diluted supernatants were then captured on an anti-human Fc sensor (Forte Bio). A baseline was established using 1×PBST (50 mM Potassium Phosphate Buffer+150 mM NaCl+0.05% Tween 20) pH 7.4, and the […] was associated with 50 nM of LRRC15 (Human LRRC15 Protein, His Tag, Acro Biosystems) in 1×PBST pH 7.4 for 120 sec to generate an association curve. In the dissociation phase, the antibody-antigen complex on the sensor was exposed to 1×PBST pH 7.4 or pH 5.4, for 300 sec. Association and dissociation phase curves were examined for the starting ABPC antibody (with no substitutions) and each corresponding antibody variant at pH 5.4 and pH 7.4 to inform on two criteria: a) enhanced dissociation (i.e., higher koff values) at pH 5.4 due to histidine substitution compared to the starting ABPC, (with no substitutions), and b) reduced dissociation at pH 7.4 (i.e., lower koff values) compared to pH 5.4 in the antibody variant itself and with the starting ABPC (with no substitutions).
The methods of Examples 9-10 were applied to RabMAb clone 29F1 (rabbit VH SEQ ID NO: 572 and VL SEQ ID NO: 578; and humanized VH SEQ ID NO: 576 and VL SEQ ID NO: 582).
Take B2: the binding result is “binds”.

As for B3, the binding result is listed as “binds”.

With B4, the binding result was “binds”.

In the case of B5, the binding result is listed as “binds”.

Turning to B6, the binding result is “binds”.

Regarding B7, the binding result is listed as “binds”.

For the molecule B8, the binding result was “binds”.

Regarding B9, the binding result was “binds”.

As to B10, the binding result is on record as “binds”.

Turning to B11, the binding result is “binds”.

With B12, the binding result is “binds”.

Turning to B13, the binding result is “binds”.

Take B14: the binding result was “binds”.

With B15, the binding result is listed as “binds”.
